Results: patent US10421817 (BEIJING MABWORKS BIOTECH, dated 2019)

B1: 18F2-30-VH5VL0 (antibody, human IgG1, kappa, V domains shown)
VH: QVQLVQSGAEVKKPGASVKVSCKASGYTFTSFWLNWVRQRPGQGLEWIGNIYPSTSYTVYNQKFKDRVTLTVDKSTSTAYMELSSLRSEDTAVYYCTRTWRGNSFDYWGQGTTVTVSS
VL: DIVMTQSPDSLAVSLGERATINCKSSQSLLNSGNQKNYVTWYQQKPGQPPKLLIYWGSTRSTGVPDRFSGSGSGTDFTLTISSLQAEDVAVYYCQNDYTYPFTFGQGTKLEIKR
notes: Humanized, human IgG1/kappa constant regions
B2: 18F2-30-VH3VL0 (antibody, human IgG1, kappa, V domains shown)
VH: QVQLVQSGAEVKKPGASVKVSCKASGYTFTSFWLNWVRQAPGQGLEWIGNIYPSTSYTVYNQKFKDRVTLTVDTSTSTVYMELSSLRSEDTAVYYCARTWRGNSFDYWGQGTTVTVSS
VL: DIVMTQSPDSLAVSLGERATINCKSSQSLLNSGNQKNYVTWYQQKPGQPPKLLIYWGSTRSTGVPDRFSGSGSGTDFTLTISSLQAEDVAVYYCQNDYTYPFTFGQGTKLEIKR
notes: as for B1
B3: 18F2-5VH3VL0 (antibody, human IgG1, kappa, V domains shown)
VH: QVQLVQSGAEVKKPGASVKVSCKASGYTFTSFWLNWVRQAPGQGLEWIGNIYPSTSYTVYNQKFKDRVTLTVDTSTSTVYMELSSLRSEDTAVYYCARTWRGNSFDLWGQGTTVTVSS
VL: DIVMTQSPDSLAVSLGERATINCKSNQSLLNSGNQKNYVTWYQQKPGQPPKLLIYWGSTRVRGVPDRFSGSGSGTDFTLTISSLQAEDVAVYYCQNDYTYPFTFGQGTKLEIKR
notes: as for B1
B4: 18F2-5VH6VL2 (antibody, human IgG1, kappa)
heavy: not shown
light: DIVMTQSPSSLTVSLGEKATINCKSNQSLLNSGNQKNYVTWYQQKPGQPPKLLIYWGSTRVRGVPDRFSGSGSGTDFTLTISSLQAEDLAVYYCQNDYTYPFTFGQGTKLEIKRTVAAPSVFIFPPSDEQLKSGTASVVCLLNNFYPREAKVQWKVDNALQSGNSQESVTEQDSKDSTYSLSSTLTLSKADYEKHKVYACEVTHQGLSSPVTKSFNRGEC
notes: as for B1
B5: 18F2-5VH0VL0 (antibody, human IgG1, kappa, V domains shown)
VH: QVQLVQSGAEVKKPGASVKVSCKASGYTFTSFWLNWVRQAPGQGLEWMGNIYPSTSYTVYNQKFKDRVTMTRDTSTSTVYMELSSLRSEDTAVYYCARTWRGNSFDLWGQGTTVTVSS
VL: DIVMTQSPDSLAVSLGERATINCKSNQSLLNSGNQKNYVTWYQQKPGQPPKLLIYWGSTRVRGVPDRFSGSGSGTDFTLTISSLQAEDVAVYYCQNDYTYPFTFGQGTKLEIKR
notes: Humanized, human IgG1/kappa constant regions; also called 18F2-SVH0VL0
B6: 18F2-30-VH2VL0 (antibody, human IgG1, kappa, V domains shown)
VH: QVQLVQSGAEVKKPGASVKVSCKASGYTFTSFWLNWVRQAPGQGLEWIGNIYPSTSYTVYNQKFKDRVTLTVDKSTSTVYMELSSLRSEDTAVYYCARTWRGNSFDYWGQGTTVTVSS
VL: DIVMTQSPDSLAVSLGERATINCKSSQSLLNSGNQKNYVTWYQQKPGQPPKLLIYWGSTRSTGVPDRFSGSGSGTDFTLTISSLQAEDVAVYYCQNDYTYPFTFGQGTKLEIKR
notes: as for B1
B7: 18F2-30-VH6VL3 (antibody, human IgG1, kappa)
heavy: not shown
light: DIVMTQSPSSLTVSLGEKATISCKSSQSLLNSGNQKNYVTWYQQKPGQPPKLLIYWGSTRSTGVPDRFSGSGSGTDFTLTISSLQAEDLAVYYCQNDYTYPFTFGSGTKLEIKRTVAAPSVFIFPPSDEQLKSGTASVVCLLNNFYPREAKVQWKVDNALQSGNSQESVTEQDSKDSTYSLSSTLTLSKADYEKHKVYACEVTHQGLSSPVTKSFNRGEC
notes: as for B1
B8: 18F2-5VH7VL2 (antibody, human IgG1, kappa)
heavy: not shown
light: DIVMTQSPSSLTVSLGEKATINCKSNQSLLNSGNQKNYVTWYQQKPGQPPKLLIYWGSTRVRGVPDRFSGSGSGTDFTLTISSLQAEDLAVYYCQNDYTYPFTFGQGTKLEIKRTVAAPSVFIFPPSDEQLKSGTASVVCLLNNFYPREAKVQWKVDNALQSGNSQESVTEQDSKDSTYSLSSTLTLSKADYEKHKVYACEVTHQGLSSPVTKSFNRGEC
notes: as for B1
B9: 18F2-5VH7VL3 (antibody, human IgG1, kappa)
heavy: not shown
light: DIVMTQSPSSLTVSLGEKATISCKSNQSLLNSGNQKNYVTWYQQKPGQPPKLLIYWGSTRVRGVPDRFSGSGSGTDFTLTISSLQAEDLAVYYCQNDYTYPFTFGSGTKLEIKRTVAAPSVFIFPPSDEQLKSGTASVVCLLNNFYPREAKVQWKVDNALQSGNSQESVTEQDSKDSTYSLSSTLTLSKADYEKHKVYACEVTHQGLSSPVTKSFNRGEC
notes: as for B1
B10: 18F2-5VH5VL0 (antibody, human IgG1, kappa, V domains shown)
VH: QVQLVQSGAEVKKPGASVKVSCKASGYTFTSFWLNWVRQRPGQGLEWIGNIYPSTSYTVYNQKFKDRVTLTVDKSTSTAYMELSSLRSEDTAVYYCTRTWRGNSFDLWGQGTTVTVSS
VL: DIVMTQSPDSLAVSLGERATINCKSNQSLLNSGNQKNYVTWYQQKPGQPPKLLIYWGSTRVRGVPDRFSGSGSGTDFTLTISSLQAEDVAVYYCQNDYTYPFTFGQGTKLEIKR
notes: as for B1
B11: 18F2-30-VH4VL0 (antibody, human IgG1, kappa, V domains shown)
VH: QVQLVQSGAEVKKPGASVKVSCKASGYTFTSFWLNWVRQRPGQGLEWIGNIYPSTSYTVYNQKFKDRVTLTVDKSTSTVYMELSSLRSEDTAVYYCARTWRGNSFDYWGQGTTVTVSS
VL: DIVMTQSPDSLAVSLGERATINCKSSQSLLNSGNQKNYVTWYQQKPGQPPKLLIYWGSTRSTGVPDRFSGSGSGTDFTLTISSLQAEDVAVYYCQNDYTYPFTFGQGTKLEIKR
notes: as for B1
B12: 18F2-5VH6VL0 (antibody, human IgG1, kappa, V domains shown)
VH: QVQLVQSGAEVKKPGASVKVSCKASGYTFTSFWLNWVRQRPGQGLEWIGNIYPSTSYTVYNQKFKDRVTLTVDKSSSTAYMELSSLTSEDTAVYYCTRTWRGNSFDLWGQGTTVTVSS
VL: DIVMTQSPDSLAVSLGERATINCKSNQSLLNSGNQKNYVTWYQQKPGQPPKLLIYWGSTRVRGVPDRFSGSGSGTDFTLTISSLQAEDVAVYYCQNDYTYPFTFGQGTKLEIKR
notes: as for B1
B13: 18F2-5VH4VL0 (antibody, human IgG1, kappa, V domains shown)
VH: QVQLVQSGAEVKKPGASVKVSCKASGYTFTSFWLNWVRQRPGQGLEWIGNIYPSTSYTVYNQKFKDRVTLTVDKSTSTVYMELSSLRSEDTAVYYCARTWRGNSFDLWGQGTTVTVSS
VL: DIVMTQSPDSLAVSLGERATINCKSNQSLLNSGNQKNYVTWYQQKPGQPPKLLIYWGSTRVRGVPDRFSGSGSGTDFTLTISSLQAEDVAVYYCQNDYTYPFTFGQGTKLEIKR
notes: as for B1
B14: 18F2-30-VH6VL0 (antibody, human IgG1, kappa, V domains shown)
VH: QVQLVQSGAEVKKPGASVKVSCKASGYTFTSFWLNWVRQRPGQGLEWIGNIYPSTSYTVYNQKFKDRVTLTVDKSSSTAYMELSSLTSEDTAVYYCTRTWRGNSFDYWGQGTTVTVSS
VL: DIVMTQSPDSLAVSLGERATINCKSSQSLLNSGNQKNYVTWYQQKPGQPPKLLIYWGSTRSTGVPDRFSGSGSGTDFTLTISSLQAEDVAVYYCQNDYTYPFTFGQGTKLEIKR
notes: as for B1
B15: 18F2-5VH6VL3 (antibody, human IgG1, kappa)
heavy: not shown
light: DIVMTQSPSSLTVSLGEKATISCKSNQSLLNSGNQKNYVTWYQQKPGQPPKLLIYWGSTRVRGVPDRFSGSGSGTDFTLTISSLQAEDLAVYYCQNDYTYPFTFGSGTKLEIKRTVAAPSVFIFPPSDEQLKSGTASVVCLLNNFYPREAKVQWKVDNALQSGNSQESVTEQDSKDSTYSLSSTLTLSKADYEKHKVYACEVTHQGLSSPVTKSFNRGEC
notes: as for B1

molecular target: T1, human Claudin 18.1 (human, UniProt P56856 1-261); experiment: FACS on HEK293A/hClaudin 18.1 cells
T1 construct: Overexpressed on HEK293A cells by lentivirus
T1 sequence (P56856 whole entry): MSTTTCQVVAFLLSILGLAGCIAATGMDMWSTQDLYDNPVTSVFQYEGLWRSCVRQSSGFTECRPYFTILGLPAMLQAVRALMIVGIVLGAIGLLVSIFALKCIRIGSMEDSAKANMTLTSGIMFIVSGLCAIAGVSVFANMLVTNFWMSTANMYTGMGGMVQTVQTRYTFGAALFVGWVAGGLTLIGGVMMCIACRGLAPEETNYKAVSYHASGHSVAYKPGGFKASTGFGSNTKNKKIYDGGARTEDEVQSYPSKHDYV

Binding result, no binding:
B1
B2
B3
B4
B5
B6
B7
B8
B9
B10
B11
B12
B13
B14
B15
